Test results taken from the supplement of paper PMC9170038.

Tested on: K4 kissing-loop RNA reporter
Experiment: apparent KD of K4 kissing-loop reporter; higher = weaker reporter binding
Details: Eterna round: R107
Description: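 RNA-MaP round R107: designed RNA switches with theophylline, tryptophan, arginine or FMN aptamers are transcribed on-chip within common flanks. They are titrated with a labelled K4 kissing-loop RNA reporter in RNA-MaP buffer (100 mM Tris pH 7.5, 80 mM KCl, 4 mM MgCl2), without ligand or with the indicated ligand. Median apparent KD per design.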

[1] = input ligand: theophylline 20 uM
[2] = input ligand: tryptophan 2.4 mM
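Further: bound reporter read as fluorescence of individual clusters on recovered sequencing chips by microscopy, with normalized cluster intensities fitted with a binding model.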

| Sequence | apparent KD of K4 kissing-loop reporter (input ligand: FMN 200 uM) | apparent KD of K4 kissing-loop reporter (input ligand: arginine 13.2 mM) | apparent KD of K4 kissing-loop reporter (input ligand: none) | apparent KD of K4 kissing-loop reporter [1] | apparent KD of K4 kissing-loop reporter [2] |
| --- | --- | --- | --- | --- | --- |
| GUUGUCUACCAGAGGUGAUGUAUAGUAUCGCGAGGACCGGUACGGCCGCCACUCGUGAAGAGAAAGGAGUGAUGUUCCGUAAUGG [C10] | 255 nM | 271 nM | 293 nM | 301 nM | 118 nM |
| UAACCGCAGAAAGAUACCAGUGAGUGAUGUUCCUCGAUCCUGUGGUUCAUUCUCUUUACCCACCCUUGGCAGCUUCAAAUGUGAC [theeternabot_exclusion_KL_Theo_B_4] | 831 nM | 537 nM | 850 nM | 573 nM | 602 nM |
| UAACUCUUGCAGUGAUGUUGCAAGUAAGCUCAGGAUAUCAGGAAACUGAGAAGGGAGCAUCCUGAGCUUCUGCAAGAGCUCAGAA [KL-SSFMN-A4] | 254 nM | 152 nM | 184 nM | 217 nM | 189 nM |
| UAACUGCAGUGAUGUUGCAGAUGUCCUGACUAGGAUAUCAGGAAACUGAGAAGGAGUCCCUUCUAAACAUCACAGAAGGAGGACA [[K1]-[K2]-[F1]'-[F1]-[F2]-[F2]'-[K]'-[F]''_Design2] | 491 nM | 415 nM | 434 nM | 508 nM | 442 nM |
| UAACUGCAGUGAUGUUGCAGAUGUCCUGACUAGGAUAUCAGGAAACUGAGAAGGAGUGCCUUCUAAACAUCACAGAAGGUGGACA [KL-SSFMN-A28] | 360 nM | 440 nM | 415 nM | 286 nM | 458 nM |
| UAAGGGUUAUGUCCUCGGUGCGAAGAGCUCCGAGGACCGGUACGGCCGCCACUCGGAAGUUCUGAGUGAGGGAGUGAUGUUCCCU [Skye_Ex_TA] | 312 nM | 291 nM | 359 nM | 315 nM | 306 nM |
| UAAUAAAUUCCAGCUGUAUCACUCUUCGAAGGAGCGGACGAAAGUCCAGGUAGGUCGCGAAGAGUGAUGUUCUUUGCGGCGCUGG [Omei KL Arginine A Exc A v6] | 82.3 nM | 68.4 nM | 94.8 nM | 76.6 nM | 57.1 nM |
| UAAUAUCAACUUGUAGGAGUGAUGUUCCGCCGAGGACCGGUACGGCCGCCACUCGACAAAAUCUCAGUGUGGUACCUAGGAAUUU [theeternabot_exclusion_KL_Trp_A_24] | 406 nM | 313 nM | 374 nM | 352 nM | 431 nM |
| UAAUAUCCGUCGGCCGCCACUCACCAGUGAUGUUGGAGGAGUGAUGUUCCACGAGUGAUGUUCGAGAGGACCGGGACGGACGAUG [6th] | 134 nM | 114 nM | 126 nM | 108 nM | 103 nM |
| UAAUCACUCGAACUGCAAGUACGAGUGGAACGAGGACCGGUACGGCCGCCACUCGAUAACUUGCAGUGAUGUUGCAAGUAAGAAU [(T)''-(K)'-(T)'-(T1)-(T2)-(K1)-(K2)_Design7] | 60.5 nM | 52.4 nM | 57.2 nM | 52.8 nM | 121 nM |
| UAAUUUAUGUCUUUAAUUUUAUAAUCAGAUACCAGUGAUUUAUGACACCCUUGGCAGCUGUAUUGAGUGAUGUUCUUAUACUUAA [JR_Nu_ExcTheophyA_Sub022] | 140 nM | 167 nM | 175 nM | 236 nM | 99.3 nM |
| UACAGGGAUAGUGAUGUUAUCCCAUGUGAUACCAGUGCCAUCCAACACCCUUGGCAGCAUACGGGCAGUGAUGUUGUUCUUGGUU [Exclusion Theophylline A GF 13] | 96.1 nM | 85.4 nM | 93.7 nM | 87.1 nM | 88.5 nM |
| UACAGGGCGAGUGAUGUUUGCUCAUGUGAUACCAGUGCCAUCCAACACCCUUGGCAGCAUGCGGGCAGUGAUGUUGUCCUUGGUU [Exclusion Theophylline A GF11] | 294 nM | 223 nM | 280 nM | 278 nM | 249 nM |
| UACUUAUAUAUCAACUUAAAUUAUUCAGAAGGAGCGUGAUCAUUCACAGGUAGGUCGCUGAACUAGUGAUGUUAGUUUUAAUUUU [JR_Nu_ExcArginiA_Sub023] | 67.9 nM | 146 nM | 81.3 nM | 126 nM | 61.5 nM |
| UAGCUCUACAGAAGGAGCGACGUUCUUAGACAGUGAUGUUGUCUAUAGUGAAUAUAGGAACGUCAGGUAGGUCGCUGUAGAGCUA [Arg B SS t11] | 213 nM | 160 nM | 200 nM | 189 nM | 164 nM |
| UAGGAGUGAUGUUCCAUGUCUUGAGCCGAAGGAGCGCCUUUCUAGGCAGGUAGGUCGCGGCAGAAGGUACCAGUGAUGUUGGAAA [Same State Arginine A GF8] | 249 nM | 385 nM | 372 nM | 283 nM | 279 nM |
| UAGGUUUAAUCGGCCGCCACUAUCAGAGCGCCAGUGAUGUUGGAGUAACGAUCGUGGCGAGUUAAUAGGACCGGGAUUCAACACA [Velazaer] | 159 nM | 141 nM | 141 nM | 152 nM | 156 nM |
| UAGUCCGAGUGAUGGUCAUCACGUGGCGGGCGAGGACCGGUACGGCCGCCACUCGACUUUGCAGUGAUGUUGCAAACCGGACAAU [Exclusion - Tryptophan A (Freestyle 21)] | 229 nM | 185 nM | 249 nM | 224 nM | 193 nM |
| UAGUGGUAGACCAGAUCUACCACUAGGGAUACCAGCCUCGGUCGAGGCCCUUGGCAGCCCAGCGGGUCCAGUGAUGUUGGAUGUC [Raanza] | 355 nM | 256 nM | 322 nM | 194 nM | 295 nM |
| UAUAAGCGCAGAGGAUAUACUAGCUUUCACUAGUGCAGUGAUGUUGCACUAGACCAGCUGUACAUAGUAGAAGGCUGCGUUCCUU [FMN B SS t1] | 89.1 nM | 116 nM | 112 nM | 131 nM | 117 nM |
| UAUACACAGGGAGGAUAUGCCCACACAACAACCGAGUGAUGUUCGGACAAUACACAUAAUACACGGGCAGAAGGCCCACAUCACA [SS FNM B Tesla 1] | 143 nM | 195 nM | 245 nM | 192 nM | 139 nM |

| Sequence | apparent KD of K4 kissing-loop reporter (input ligand: FMN 200 uM) | apparent KD of K4 kissing-loop reporter (input ligand: arginine 13.2 mM) | apparent KD of K4 kissing-loop reporter (input ligand: none) | apparent KD of K4 kissing-loop reporter [1] | apparent KD of K4 kissing-loop reporter [2] |
| --- | --- | --- | --- | --- | --- |
| UAUAUAUGAUGUGAUACCAGUGAAAAGCCAGUGAUGUUGGUAGAACUGGUAUAUAAAUAACACCCUUGGCAGCACAAUCACGUAU [whbob_Ex_Theo_B_sa96] | 155 nM | 134 nM | 147 nM | 191 nM | 146 nM |
| UAUAUGCAGUGAUGUUGCGGCACACUUCCGAAGGAUAUGUCCGGUGACAGAAGGUCGGUCCAUGGGACAUCACGUGUGCUUGAUG [theeternabot_exclusion_KL_FMN_A_15] | 542 nM | 536 nM | 613 nM | 529 nM | 458 nM |
| UAUUUAAUGUCAGGAUAUCGUAUACGAGUGAUGUUCGUAUUUCUACUAUAGAUUAUUUAAAUUUUUCGAGAAGGGACAAUAUUUA [KL-SSFMN-B4] | 177 nM | 208 nM | 193 nM | 186 nM | 158 nM |
| UCAAACGAUGGAAGGAGCGCUCGUCAGUCCUGCGAGUGAUGUUCGUGGGUAAAUAGUCGCGAGCAGGUAGGUCGCCAUCUUAAGC [Bisodi] | 135 nM | 98.1 nM | 118 nM | 108 nM | 113 nM |
| UCACAAGUUAACUAGUGAUGUUAGUUAGUACGAGGACCGGUACGGCCGCCACUCGAAAAGUGGUUUUACGGACUUUUGGGCAGGC [theeternabot_sameState_KL_Trp_A_17] | 337 nM | 250 nM | 268 nM | 223 nM | 260 nM |
| UCCUACGAGGUAACGUGGAUAUCUCGUUGCAAGGAUAUCUGGAAACAGAGAAGGUGCAACAUUAUCAGCAGUGAUGUUGCUGACC | 215 nM | 247 nM | 276 nM | 389 nM | 329 nM |
| UCCUACGAGGUAACGUGGAUAUCUCGUUGCAAGGAUAUCUGGAAACAGAGAAGGUGCUACAUUAUCGGCAGUGAUGUUGCUGACC | 687 nM | 655 nM | 1010 nM | 759 nM | 529 nM |
| UCCUAGGUUCGUCGGCGAAAGCCCUGCGAAGGAGCGUGCGAAAGCACAGGUAGGUCGCGCAGUGAUGUUGCACCUAGGUAAUAAA [#SwitchBubble 23 #K4Late] | 1030 nM | 672 nM | 344 nM | 150 nM | 781 nM |
| UCCUGCUGUCAGCCACGAAAGUGGAUUGAUACCAGAGUCGAAAGACUCCCUUGGCAGCGAGUGAUGUUCGCAGCAGGUAAAUAAA [MatMod 3 - Jieux - Exclusion - Theophylline A] | 358 nM | 257 nM | 269 nM | 356 nM | 256 nM |
| UCGAGUUGACGAAAAGUCAACUCGUGAGAUACCAGUGACGAAAGUCACCCUUGGCAGCUCACUGCCAGUGAUGUUGGUAUAUAGA [#05 K4 Theophylline A Same State] | 146 nM | 80.8 nM | 105 nM | 217 nM | 87.5 nM |
| UCGCAUCUCAGAAGGAGCGACAGUGAUUCUGAUAGAAAUCUGAGUGAUGUUCAGAACAGCUGUCAGGUAGGUCGCUGAGAUGCGA [Arg B Ex t8] | 813 nM | 384 nM | 547 nM | 413 nM | 314 nM |
| UCUGCAAAGUCGGCCGCCACUCCGGGCCCUAUAAAUGGGCGCAGUGAUGUUGCGGCUAGGCCUCUGAGGACCGGGACUUUGUAGA [Atlesoqu] | 87.5 nM | 54.3 nM | 100 nM | 132 nM | 246 nM |
| UCUGUUUCGAUGGAUACCAGUCGGCGAAUCACAGCUAUUAGCCUAGUGAUGUUAGGAUCGGACCCUUGGCAGCCAAUGGAUGCGG [theeternabot_sameState_KL_Theo_B_14] | 921 nM | 750 nM | 1240 nM | 1270 nM | 732 nM |
| UGACUACAUAAGGAAUAAUCCUAGUGAUGUUAGGAUAUGCUGAUAAGCAGAAGGAACGGAGAUCGAAGGAUCUCAUAUGUAGUCU [whbob_Ex_FMNA__2th194] | 275 nM | 101 nM | 103 nM | 121 nM | 103 nM |
| UGACUGGACUGAAGGAGCGCAAAACUCCUAGUGAUGUUAGGAAAACGAGACAAAGUCUCGAUGCAGGUAGGUCGCAGUCUAGUCU | 209 nM | 146 nM | 185 nM | 194 nM | 182 nM |
| UGACUGGAUGGAAGGAGCGCUAAACUCCUAGUGAUGUUAGGGAUACGAGACAAAGUCUUGAAGCAGGUAGGUCGCCAUCUAGUCU [FiskerMod 10 - Jieux - Same State - Arginine B] | 170 nM | 124 nM | 144 nM | 144 nM | 138 nM |
| UGAGAUAUGAGGGAUACCAGCCAUAAGGAAAGUGUGAUGAGUGAUGUUCUGACAAGCCAAGGCCCUUGGCAGCUUUAAUAGCAUC [whbob_SS_Theo_B_th77] | 328 nM | 191 nM | 280 nM | 167 nM | 267 nM |
| UGAUACCAGACGGCCGCCACUCCCGUAAGUCAAAGACUUACGAAGAGAAUCGUCCAGUGAUGUUGGAGGACCGGGUCUGGUAUCU [FiskerMod 11 - Jieux - Exclusion - Tryptophan B] | 680 nM | 664 nM | 818 nM | 600 nM | 785 nM |
| UGAUACCAGACGGCCGCCACUCCCGUAAGUCAAAGACUUACGAAGAGAGUCGUCCAGUGAUGUUGGAGGACCGGGUCUGGUAUCU [FiskerMod 12 - Jieux - Exclusion - Tryptophan B] | 179 nM | 143 nM | 163 nM | 138 nM | 294 nM |
| UGAUACCAGACGGCCGCCACUCCUAGUGAUGUUAGGAACCUAAAAUAGCAUGUCAAAGACAUGCGGAGGACCGGGUCUGGUAUCU [TrypBX 23 #SwitchBubble #Palindromic #StaticStem] | 111 nM | 92.1 nM | 104 nM | 90.3 nM | 254 nM |
| UGAUACCAGACGGCCGCCACUCCUGCAGUCAAAGACUGCAAAGGAAUAUUCGUCCAGUGAUGUUGGAGGACCGGGUCUGGUAUCU [TrypBX 11 #SwitchBubble #Palindromic #StaticStem] | 974 nM | 698 nM | 1210 nM | 701 nM | 844 nM |
